# Earlier results in patent publication US20240408194A1, “DNA ORIGAMI SUBUNIT VACCINE FOR PREVENTION OF SARS-CoV-2 VARIANT INFECTION” (priority 2021, published 2024).
# pKd: −log10 of the molar value.
# Target: T1, fibrinogen (Homo sapiens, UniProt P02675+P02679)
# T1 sequence (P02675 31-491): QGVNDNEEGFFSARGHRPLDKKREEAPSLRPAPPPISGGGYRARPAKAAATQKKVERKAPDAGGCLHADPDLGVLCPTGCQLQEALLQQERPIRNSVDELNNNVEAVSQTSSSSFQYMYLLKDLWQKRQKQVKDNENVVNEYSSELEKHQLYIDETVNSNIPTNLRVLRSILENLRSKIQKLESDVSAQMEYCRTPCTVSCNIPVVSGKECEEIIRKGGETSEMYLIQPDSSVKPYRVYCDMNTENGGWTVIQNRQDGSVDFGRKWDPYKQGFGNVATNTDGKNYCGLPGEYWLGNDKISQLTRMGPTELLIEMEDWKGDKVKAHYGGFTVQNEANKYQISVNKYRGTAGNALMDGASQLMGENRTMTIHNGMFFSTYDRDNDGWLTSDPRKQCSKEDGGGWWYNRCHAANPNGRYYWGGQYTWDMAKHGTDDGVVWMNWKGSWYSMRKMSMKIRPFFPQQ
# T1 sequence (P02679 27-453): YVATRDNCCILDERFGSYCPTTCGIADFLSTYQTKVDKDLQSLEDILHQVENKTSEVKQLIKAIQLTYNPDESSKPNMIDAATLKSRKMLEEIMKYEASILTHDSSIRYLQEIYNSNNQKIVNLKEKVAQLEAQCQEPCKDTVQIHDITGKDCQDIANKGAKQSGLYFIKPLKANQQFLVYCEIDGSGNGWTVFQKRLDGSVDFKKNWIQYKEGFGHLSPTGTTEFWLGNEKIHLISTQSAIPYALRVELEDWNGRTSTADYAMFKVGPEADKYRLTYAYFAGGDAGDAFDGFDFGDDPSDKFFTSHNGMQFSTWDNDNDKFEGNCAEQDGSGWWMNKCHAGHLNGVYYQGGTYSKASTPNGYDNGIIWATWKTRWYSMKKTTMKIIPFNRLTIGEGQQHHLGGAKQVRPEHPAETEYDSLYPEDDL
# T1 sequence (P02671 20-629 partner limits assumed): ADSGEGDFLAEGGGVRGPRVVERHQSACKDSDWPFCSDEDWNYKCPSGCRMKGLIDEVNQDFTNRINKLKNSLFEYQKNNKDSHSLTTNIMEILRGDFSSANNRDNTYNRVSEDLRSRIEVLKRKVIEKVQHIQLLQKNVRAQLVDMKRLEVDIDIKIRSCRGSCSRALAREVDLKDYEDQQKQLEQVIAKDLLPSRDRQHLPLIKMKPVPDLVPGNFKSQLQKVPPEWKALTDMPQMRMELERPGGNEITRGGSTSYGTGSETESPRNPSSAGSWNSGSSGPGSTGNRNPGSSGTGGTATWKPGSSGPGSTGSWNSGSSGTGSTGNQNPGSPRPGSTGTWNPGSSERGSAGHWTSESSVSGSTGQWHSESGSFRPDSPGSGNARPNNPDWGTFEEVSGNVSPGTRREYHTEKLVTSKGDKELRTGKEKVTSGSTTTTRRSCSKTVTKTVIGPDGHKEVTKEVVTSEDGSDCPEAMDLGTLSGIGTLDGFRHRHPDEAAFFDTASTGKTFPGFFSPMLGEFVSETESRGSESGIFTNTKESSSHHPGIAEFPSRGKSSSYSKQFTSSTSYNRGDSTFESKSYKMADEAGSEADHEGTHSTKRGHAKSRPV
# Conditions: hydrophobic pocket domains of fibrinogen; cited from earlier work
substance,measurement,value
GPRPXX: short fibrin knob peptide (SEQ ID NO: 3) that recognizes hydrophobic pocket domains of fibrinogen,pKd,5.00 to 5.30
